How the values were obtained:
MS2 coat protein [1] = experiment: apparent KD of MS2 coat protein, switch OFF state (with FMN for OFF switches, without FMN for ON switches); designed switch direction (-1 OFF switch, 1 ON switch): 1; higher = weaker reporter binding; settings: FMN input: 0 or 200 uM; Eterna round: R93 (includes R88 designs)
In short: (§1)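 On-chip transcription from Illumina sequencing clusters produced the designed RNA switches. These were titrated with SNAP-549-labelled MS2 coat protein (twofold steps, 0.7 or 1.5 nM to 3 µM) in 100 mM Tris-HCl pH 7.5, 80 mM KCl, 4 mM MgCl2, with or without constant ligand. The apparent KD given is the per-design median of normalised cluster binding-curve fits.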

MS2 coat protein [2] = experiment: apparent KD of MS2 coat protein, switch ON state; designed switch direction (-1 OFF switch, 1 ON switch): 1; higher = weaker reporter binding; settings: FMN input: 0 or 200 uM; Eterna round: R93 (includes R88 designs)
In short: as §1

In the case of “GUGGCCUAGGCACAGGAUAUGUUGCUCGUAACAUGAGGAUCACCCAUGUGCCUAUGAGAUUUAAUGCAGAAGGGUGCACGCCACG [Edbeso]”, the “apparent KD of MS2 coat protein” value (MS2 coat protein [1]) is reported as 233 nM and the “apparent KD of MS2 coat protein” value (MS2 coat protein [2]) is reported as 14.7 nM.
For “GAGAAACAUGAGGAUCACCCAUGUAGAAAUAUGGGAGGAUAUACAAAGACGAAAGUCAAAGUAGAAGGCCUAGAAG [77%, Mat - Mod of Eli - With 2 more G's]”, the “apparent KD of MS2 coat protein” value (MS2 coat protein [1]) was 51.6 nM and the “apparent KD of MS2 coat protein” value (MS2 coat protein [2]) was 21.9 nM.
In the case of “AGCACGGGAUUGGAGGAUAUGUUGUUUGCAACAUGAGGAUCACCCAUGUCUGAGGCUGAAAAGCAGCAGAAGGCCGAUACAACCA [SS2-1.2]”, the “apparent KD of MS2 coat protein” value (MS2 coat protein [1]) is reported as 367 nM and the “apparent KD of MS2 coat protein” value (MS2 coat protein [2]) is reported as 43.8 nM.
For “GGGAGACAUGAGGAUCACCCAUGUGAGAAGAGGCGAGGAUAUCGAAAGAAAGAAGAGAAACGAGAAGGCGCGAGUA [salish99-SS1-050]”, the “apparent KD of MS2 coat protein” value (MS2 coat protein [1]) was 65.5 nM and the “apparent KD of MS2 coat protein” value (MS2 coat protein [2]) was 29.7 nM.
For “CAUCACGCGCCUAAGGAUAUGUCUCACAAGACAUGAGGAUCACCCAUGUAGAAUAAAUAAAUGAUGCAGAAGGUGGAGCGCAUGC [Gerixeza]”, the “apparent KD of MS2 coat protein” value (MS2 coat protein [1]) was 517 nM and the “apparent KD of MS2 coat protein” value (MS2 coat protein [2]) was 134 nM.
In the case of “AAAAAAAAAAGUCAGGAUAUACAAAUUUUUACAUGAGGAUCACCCAUGUUAAAGAAAAAAAAAAAGUAGAAGGGACAAAAAAAAAA [Same State 2 - Omei 2]”, the “apparent KD of MS2 coat protein” value (MS2 coat protein [1]) is reported as 15.4 nM and the “apparent KD of MS2 coat protein” value (MS2 coat protein [2]) is reported as 11.1 nM.
For “AGAAAUAAAACACAGGAUAUCCAAAAGAAAACAUGAGGAUCACCCAUGUAAAAGAAAAUAAAAUGGGAGAAGGGUGAAAAUAAAG [Breaking Jandersonlee's winner (80%)]”, the “apparent KD of MS2 coat protein” value (MS2 coat protein [1]) was 52.6 nM and the “apparent KD of MS2 coat protein” value (MS2 coat protein [2]) was 38 nM.
In the case of “UGUUCGAGUAGUGAGGAUAUUCAUGGGCCCACAUGAGGAUCACCCAUGUAAAGGACCGGGCCGAAGGAGAAGGCGCGUAAAAUUA [Esenan]”, the “apparent KD of MS2 coat protein” value (MS2 coat protein [1]) is reported as 73.3 nM and the “apparent KD of MS2 coat protein” value (MS2 coat protein [2]) is reported as 28.9 nM.
In the case of “AAAGAAAAACUAGAGGAUAUCCGAGUGGUAACAUGAGGAUCACCCAUGUGAUGAAAGGAACAUGAGGAGAAGGCUAGAAGAAAAA [JL Nando mod 8]”, the “apparent KD of MS2 coat protein” value (MS2 coat protein [1]) is reported as 257 nM and the “apparent KD of MS2 coat protein” value (MS2 coat protein [2]) is reported as 14.4 nM.
With “AAAAGACAUGAGGAUCACCCAUGUCAAAAGACAUGAGGAUAUGUACAGACUUCGGUCUGUACAGAAGGCAUGAAAA [SS1 - 1066]” the “apparent KD of MS2 coat protein” value (MS2 coat protein [1]) was 23.6 nM and the “apparent KD of MS2 coat protein” value (MS2 coat protein [2]) was 13.8 nM.
For “AAUAAAAAUAGUCAGGAUAUGAGAAAUAAGACAUGAGGAUCACCCAUGUAAUAAGUAAAAGUAAAUUAGAAGGGACAGGGUGAAA [JR_SS002_Sub019]”, the “apparent KD of MS2 coat protein” value (MS2 coat protein [1]) was 167 nM and the “apparent KD of MS2 coat protein” value (MS2 coat protein [2]) was 200 nM.
“AAUAAACAUGAGGAUCACCCAUGUGGUGGCCCAUGAGGAUAUCCAUGUACAUUGUACACAGGAGAAGGCAUAGCCA [Tioredes]” was tested, and the “apparent KD of MS2 coat protein” value (MS2 coat protein [1]) was 27 nM and the “apparent KD of MS2 coat protein” value (MS2 coat protein [2]) was 119 nM.
For “AGGAGACAUGAGGAUCACCCAUGUGAGAAGAGGCGAGGAUAUCGAAAGAAAGAAAGAAAACGAGAAGGCGCGAGAA [salish99-SS1-016]”, the “apparent KD of MS2 coat protein” value (MS2 coat protein [1]) was 42.8 nM and the “apparent KD of MS2 coat protein” value (MS2 coat protein [2]) was 28 nM.
In the case of “AGCACGUGAUUGGAGGAUAUGUUGUAAGCAACAUGAGGAUCACCCAUGUCUGAGGCUGAAAAGCAGCAGAAGGCCGAUACAACCA [SS2-1.3]”, the “apparent KD of MS2 coat protein” value (MS2 coat protein [1]) is reported as 110 nM and the “apparent KD of MS2 coat protein” value (MS2 coat protein [2]) is reported as 37.2 nM.
For “GAAAUACAUGAGGAUCACCCAUGUUAGGUAAAACAAGGAUAUCUAGAUAAAUAAAAAUAUAGAGAAGGUGUAUAAA [JR_SS001_Sub206]”, the “apparent KD of MS2 coat protein” value (MS2 coat protein [1]) was 25.1 nM and the “apparent KD of MS2 coat protein” value (MS2 coat protein [2]) was 20.6 nM.
“GUGGACAUAGGAUAGGAUAUAUGAAUAAUUACAUGAGGAUCACCCAUGUCCAUUUAUAUGGGAACAUAGAAGGGUUGUAGUUAAC [Mat - Same state - Malcolm Mod - D131]” was tested, and the “apparent KD of MS2 coat protein” value (MS2 coat protein [1]) was 81.9 nM and the “apparent KD of MS2 coat protein” value (MS2 coat protein [2]) was 117 nM.
“AUGAAAGUAACGCAGGAUAUCCAGGAUACAACAUGAGGAUCACCCAUGUACAUACGAACGUAUAAGGAGAAGGGUGGAUGAUCUUC [ss2-3]” was tested, and the “apparent KD of MS2 coat protein” value (MS2 coat protein [1]) was 48.2 nM and the “apparent KD of MS2 coat protein” value (MS2 coat protein [2]) was 56.7 nM.
For “AAAAAAUAAAAAAAGGAUAUACUGCUAGAAACAUGAGGAUCACCCAUGUAACUAGCAGUAAUAAAAAAGAAGGAAAAAUAAAAAA [SS2: MS2 35]”, the “apparent KD of MS2 coat protein” value (MS2 coat protein [1]) was 3.61 nM and the “apparent KD of MS2 coat protein” value (MS2 coat protein [2]) was 1.15 nM.
With “GAAAAACAUGAGGAUCACCCAUGUGAGAAUAUGGGAGGAUAUACAAGGACGAAAGUCAAGGUAGAAGGCCUAAAAG [Mat - Same State 1 - Eli mod - 28]” the “apparent KD of MS2 coat protein” value (MS2 coat protein [1]) was 155 nM and the “apparent KD of MS2 coat protein” value (MS2 coat protein [2]) was 34.3 nM.
With “UAUAGACAUGAGGAUCACCCAUGUAGAAUUAUGGGAGGAUAUACAAAGACGAGAGUCAGAGUAGAAGGCCUAGGAU [salish99-ss1-154]” the “apparent KD of MS2 coat protein” value (MS2 coat protein [1]) was 63.7 nM and the “apparent KD of MS2 coat protein” value (MS2 coat protein [2]) was 22.2 nM.
With “AGAAAACAUGAGGAUCACCCAUGUAGAAAUAUGGGAGGAUAUACAAAGACGAAAGUCAAGGUAGAAGGCCUAAAGA [Mat - Same State 1 - Meechl mod - D124]” the “apparent KD of MS2 coat protein” value (MS2 coat protein [1]) was 99.9 nM and the “apparent KD of MS2 coat protein” value (MS2 coat protein [2]) was 20 nM.
For “AAAUAAAUGACUGAGGAUAUAUCGAAGAAGACAUGAGGAUCACCCAUGUGAUAAUAAAAAGGGUGGUAGAAGGUAGUCAACAAAC [Mod 8 of Pariah 4 by Hyphema in Round 1]”, the “apparent KD of MS2 coat protein” value (MS2 coat protein [1]) was 122 nM and the “apparent KD of MS2 coat protein” value (MS2 coat protein [2]) was 133 nM.
“AACAAUCUAUCUGAGGAUAUCAUGUGAAAGACAUGAGGAUCACCCAUGUCGCAGGAAACUGCUCAUGAGAAGGCAGAUAGAUUGA [SS2: 1127]” was tested, and the “apparent KD of MS2 coat protein” value (MS2 coat protein [1]) was 12.5 nM and the “apparent KD of MS2 coat protein” value (MS2 coat protein [2]) was 15.6 nM.
With “AAAGACAUGGUGCAGGAUAUAUUAAUAGUCACAUGAGGAUCACCCAUGUUCAGAUAUCUGAACGAGUAGAAGGGCGAUGAAAAAA [SameState2 Malc#5]” the “apparent KD of MS2 coat protein” value (MS2 coat protein [1]) was 61.9 nM and the “apparent KD of MS2 coat protein” value (MS2 coat protein [2]) was 88.9 nM.
With “ACAUGCUGCCGGCAGGAUAUCGCUUGGCGGACAUGAGGAUCACCCAUGUGAGAAAGUCGCGCGCGCGAGAAGGGCCAUGGUAUCAG [SameState2_Neo]” the “apparent KD of MS2 coat protein” value (MS2 coat protein [1]) was 61.1 nM and the “apparent KD of MS2 coat protein” value (MS2 coat protein [2]) was 89.3 nM.
With “AAAAAACAUGAGGAUCACCCAUGUGAAAAUAUGGGAGGAUAUACAAAGACGAGAGUCAAAGUAGAAGGCCUAAAAA [Mat - Same State 1 - Eli mod - D87]” the “apparent KD of MS2 coat protein” value (MS2 coat protein [1]) was 139 nM and the “apparent KD of MS2 coat protein” value (MS2 coat protein [2]) was 26.6 nM.
In the case of “AAAAAACAUGAGGAUCACCCAUGUGAGAACAUGGGAGGAUAUACAAGGAUGAGAGUCAAGGUAGAAGGCCUAAGAA [Garnet 70]”, the “apparent KD of MS2 coat protein” value (MS2 coat protein [1]) is reported as 48.5 nM and the “apparent KD of MS2 coat protein” value (MS2 coat protein [2]) is reported as 76.1 nM.
In the case of “GAGAAACAUGAGGAUCACCCAUGUAGAGAUAUGGGAGGAUAUACAGAGACGAGAGUCAAAGUAGAAGGCCUAGAAG [77%, Mat - Mod of Eli - With 5 more G's]”, the “apparent KD of MS2 coat protein” value (MS2 coat protein [1]) is reported as 46.4 nM and the “apparent KD of MS2 coat protein” value (MS2 coat protein [2]) is reported as 25.5 nM.
In the case of “CAGAGACAUGAGGAUCACCCAUGUAGGAUUAUGGGAGGAUAUACAAAGACGAGAGUCAGAGUAGAAGGCCUAGGCC [salish99-ss1-145]”, the “apparent KD of MS2 coat protein” value (MS2 coat protein [1]) is reported as 43.2 nM and the “apparent KD of MS2 coat protein” value (MS2 coat protein [2]) is reported as 29.7 nM.
In the case of “AAAAAACAUGAGGAUCACCCAUGUAGAAACAUGGGAGGAUAUACGAAGACGAAAGUCAAAGUAGAAGGCCUAAGAA [Garnet 88]”, the “apparent KD of MS2 coat protein” value (MS2 coat protein [1]) is reported as 224 nM and the “apparent KD of MS2 coat protein” value (MS2 coat protein [2]) is reported as 182 nM.
“AGAAAUAAAAGAGAGGAUAUCCAAAAUAAAACAUGAGGAUCACCCAUGUGUACGAAAGUACAAUGGGAGAAGGCUCAAAAUAAAG [80% More Helter Skelter 2 + Hairpin]” was tested, and the “apparent KD of MS2 coat protein” value (MS2 coat protein [1]) was 6.54 nM and the “apparent KD of MS2 coat protein” value (MS2 coat protein [2]) was 1280 nM.
With “AACAAUCUAUCUGAGGAUAUCAUGUCAAAGACAUGAGGAUCACCCAUGUACCAGGAAACUGGAUAUGAGAAGGCAGAUAGAUUGA [SS2: 1119]” the “apparent KD of MS2 coat protein” value (MS2 coat protein [1]) was 204 nM and the “apparent KD of MS2 coat protein” value (MS2 coat protein [2]) was 16.1 nM.
